From patent publication US20100062462A1, “IMMUNODEFICIENCY VIRUSES” (priority 2005, published 2010)

B1: caspase-8 polypeptide: full-length caspase-8 polypeptide, over-expressed (protein, UniProt Q14790 1-479, looked up)
chain: MDFSRNLYDIGEQLDSEDLASLKFLSLDYIPQRKQEPIKDALMLFQRLQEKRMLEESNLSFLKELLFRINRLDLLITYLNTRKEEMERELQTPGRAQISAYRVMLYQISEEVSRSELRSFKFLLQEEISKCKLDDDMNLLDIFIEMEKRVILGEGKLDILKRVCAQINKSLLKIINDYEEFSKERSSSLEGSPDEFSNGEELCGVMTISDSPREQDSESQTLDKVYQMKSKPRGYCLIINNHNFAKAREKVPKLHSIRDRNGTHLDAGALTTTFEELHFEIKPHDDCTVEQIYEILKIYQLMDHSNMDCFICCILSHGDKGIIYGTDGQEAPIYELTSQFTGLKCPSLAGKPKVFFIQACQGDNYQKGIPVETDSEEQPYLEMDLSSPQTRYIPDEADFLLGMATVNNCVSYRNPAEGTWYIQSLCQSLRERCPRGDDILTILTEVNYEVSNKDDKKNMGKQMPQPTFTLRKKLVFPSD
modifications: full-length
notes: full-length caspase-8 polypeptide, over-expressed
B2: renin: another aspartyl protease (protein, UniProt P00797 67-406, looked up)
Renin: LTLGNTTSSVILTNYMDTQYYGEIGIGTPPQTFKVVFDTGSSNVWVPSSKCSRLYTACVYHKLFDASDSSSYKHNGTELTLRYSTGTVSGFLSQDIITVGGITVTQMFGEVTEMPALPFMLAEFDGVVGMGFIEQAIGRVTPIFDNIISQGVLKEDVFSFYYNRDSENSQSLGGQIVLGGSDPQHYEGNFHYINLIKTGVWQIQMKGVSVGSSTLLCEDGCLALVDTGASYISGSTSSIEKLMEALGAKKRLFDYVVKCNEGPTLPDISFHLGGKEYTLTSADYVFQESYSSKKLCTLAIHAMDIPPPTGPTWALGATFIRKFYTEFDRRNNRIGFALAR
B3: casp8p41 polypeptide: procaspase-8 cleavage fragment p41 generated by HIV protease (SEQ ID NO:2) (protein, listed as Homo sapiens)
chain: MDFSRNLYDIGEQLDSEDLASLKFLSLDYIPQRKQEPIKDALMLFQRLQEKRMLEESNLSFLKELLFRINRLDLLITYLNTRKEEMERELQTPGRAQISAYRVMLYQISEEVSRSELRSFKFLLQEEISKCKLDDDMNLLDIFIEMEKRVILGEGKLDILKRVCAQINKSLLKIINDYEEFSKERSSSLEGSPDEFSNGEELCGVMTISDSPREQDSESQTLDKVYQMKSKPRGYCLIINNHNFAKAREKVPKLHSIRDRNGTHLDAGALTTTFEELHFEIKPHDDCTVEQIYEILKIYQLMDHSNMDCFICCILSHGDKGIIYGTDGQEPPIYELTSQFTGLKCPSLAGKPKVF

Legend:
[1] = system: NFκB-mediated transcription; experiment: NFκB activation in an over-expression system; type: cell-based
[2] = biological target: T1, procaspase-8 (Homo sapiens, UniProt Q14790, A331P); experiment: in vitro cleavage of 35S methionine-labeled procaspase-8, autoradiography and immunoblotting; type: biochemical; conditions: 50 mM NaOAc (pH 4.9), 200 mM NaCl, 5 mM DTT, 10% glycerol
T1 construct: amino acids 355 and 356 were mutated in full-length caspase-8; made in house; host or cells: cell-free TNT Quick coupled transcription/translation system (Promega)
Procedure: The fusion polypeptide, Flag-procaspase-8-Myc, was prepared by TNTR Quick coupled transcription/translation systems (Promega, Madison, Wis.). Briefly, 1 μg of pcDNA3Flag-procaspase-8-Myc or pcDNA3Flag (as a control) was added to a 50 μL nuclease-free reaction mixture containing 40 μL of TNT Quick Master Mix and 1 μL of 1 mM […] methionine. The reaction was carried out at 30° C. for 90 minutes and stopped by adding 20 μg/mL of cycloheximide (CI-IX) and 200 μg/mL of RNase and incubating the mixture at 30° C. for 5 minutes. ^35S methionine-labeled Flag-procaspase-8-Myc fusion polypeptide was prepared by adding 40 μCi of ^35S methionine instead of 1 μL of 1 mM methionine. The reaction mixture was separated by SDS-PAGE on a 10-15% gel and visualized by autoradiography. […]
The ^35S methionine-labeled Flag-procaspase-8-Myc fusion polypeptide produced in vitro was incubated with HIV-1 protease purchased from Sachem Biosciences (King of Prussia, Pa.). […] After cleavage of ^35S methionine-labeled Flag-procaspase-8-Myc fusion polypeptide by HIV-1 protease, the products were analyzed by autoradiography (FIG. 1C, top) and immunoblotting using antibodies directed against the Flag (FIG. 1C, middle) and Myc (FIG. 1C, bottom) epitopes. […]

[3] = system: primary human T cells; experiment: transfection of primary human T cells, viability by light scatter and apoptosis by TUNEL; type: cell-based; conditions: PBL from HIV-negative donors transfected with pcDNA3 HA casp8p41, compared with GSK3β control vector
Procedure: Primary human T cells were tested for their response to expression of casp8p41 polypeptide by transfecting cells with a vector encoding casp8p41 polypeptide, or with a control vector encoding glycogen synthase kinase 3β (GSK3β; Kim et al., J Biol Chem., 278:13995-14001 (2003)). PBL from HIV-negative donors were isolated and transfected with 2 μg/10×10^6 cells with pcDNA3 HA GSK3β (Ougolkov et al., Cancer Res., 65:2076-2081 (2005)) or pcDNA3 HA casp8p41 using nucleofectin (AMAXA, MD) and program U14. Transfected cells were analyzed for changes in viability by light scatter or for apoptosis by TUNEL staining.

[4] = system: cytosols from Jurkat T cells; experiment: apoptotic signaling cascade in cell-free system (Jurkat cell extracts), Western blot; type: biochemical; conditions: added to cytosols from Jurkat T cells
Procedure: The ability of the procaspase-8 cleavage fragment p41 (hereafter referred to as casp8p41) to initiate an apoptotic signaling cascade in a cell-free system was tested. The cell free system was used previously to reveal the signaling pathway used by HIV protease to initiate apoptosis.
Jurkat cells were purchased from ATCC (Rockville, Md.) and maintained in Dulbecco's Modified Eagle Medium (DMEM) or RPMI1640 (GIBCO) supplemented with 10% (v/v) FBS, 1% penicillin and streptomycin, and 2 mM L-glutamine. The cells were incubated at 37° C. in a humidified atmosphere containing 5% CO2 and 95% air. Jurkat cell extracts were prepared as described previously (Nie et al., Cell Death Differ., 9:1172-84 (2002)). Briefly, cells (0.5×10^6 cells/mL) were harvested by centrifugation at 16000×g for 5 minutes at 4° C. The cell pellet was washed twice with ice-cold PBS (pH 7.4), followed by a single wash with ice-cold caspase buffer (20 mM PIPES, 100 mM NaCl, 10 mM DTT, 1 mM EDTA, 0.1% CHAPS, 250 mM sucrose, pH 7.2). […] Polypeptide concentrations were determined using a BCA protein assay kit (Pierce Chemical Co., Rockford, Ill.), and the resultant suspension was incubated with either HIV protease or casp8p41 polypeptide. […]

[5] = system: HeLa cells; experiment: transient expression in HeLa cells, TUNEL, active caspase-3 and Annexin-V staining; type: cell-based; conditions: cells transfected with pEGFPC1casp8p41
Procedure: The effect of transient expression of casp8p41 polypeptide in HeLa cells was investigated. HeLa cells were purchased from ATCC and maintained in Dulbecco's Modified Eagle Medium (DMEM; GIBCO) supplemented with 10% (v/v) FBS, 1% penicillin and streptomycin, and 2 mM L-glutamine. The cells were incubated at 37° C. in a humidified atmosphere containing 5% CO2 and 95% air. Exponentially growing cells were seeded at 2500-5000 cells/well in a 96-well plate. The cells were transfected with a DNA plasmid expressing GFP (pEGFPC1, BD Biosciences Clontech, Palo Alto, Calif.), or with a plasmid expressing casp8p41 polypeptide as a fusion to the C-terminus of GFP (pEGFPC1casp8p41) using Fugene 6 (2 μL per μg DNA), according to the manufacturer's protocol. […]
HeLa cells transfected with pEGFPC1 or pEGFPC1casp8p41 were analyzed by confocal microscopy following staining with DAPI to visualize cell nuclei and TUNEL staining to detect apoptosis. […]
Cells transfected with pEGFPC1 and pEGFPC1casp8p41 were also subjected to Annexin-V PE, active caspase-3, and TUNEL staining and analyzed for cell death by flow cytometry, gating specifically on GFP-positive cells. […] GFP and annexin-V PE double-positive cells were analyzed by flow cytometry at 30,000 events per sample. […]

T1 sequence (Q14790 whole entry A331P): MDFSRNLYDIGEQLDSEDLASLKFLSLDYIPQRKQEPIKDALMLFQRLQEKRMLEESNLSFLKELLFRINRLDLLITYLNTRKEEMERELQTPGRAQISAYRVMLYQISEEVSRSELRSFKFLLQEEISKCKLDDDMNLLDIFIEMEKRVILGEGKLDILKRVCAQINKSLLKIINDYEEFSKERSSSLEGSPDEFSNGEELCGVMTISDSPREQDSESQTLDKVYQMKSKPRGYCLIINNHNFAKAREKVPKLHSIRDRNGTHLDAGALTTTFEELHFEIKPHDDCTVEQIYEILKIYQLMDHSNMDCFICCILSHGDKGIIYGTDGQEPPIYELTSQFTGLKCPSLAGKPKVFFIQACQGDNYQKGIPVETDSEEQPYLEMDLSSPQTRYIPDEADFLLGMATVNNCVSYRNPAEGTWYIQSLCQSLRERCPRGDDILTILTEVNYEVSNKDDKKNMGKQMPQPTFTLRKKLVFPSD

Molecule	NFκB activation [1]	cleavage of Flag-procaspase-8-Myc fusion polypeptide [2]	level of apoptosis [3]	apoptotic signaling: Bid cleavage, cytochrome c release, caspase-9 and PARP cleavage [4]	TUNEL positivity and active caspase-3 expression, flow cytometry gated on GFP-positive cells [5]
B1	increase NFκB activation				
B2		did not cause procaspase 8 cleavage			
B3	two-fold more than full-length caspase-8 polypeptide		induced a significantly greater level of apoptosis	resulted in cleavage of Bid to p15 tBid, release of cytochrome c from the mitochondrial fraction into the cytosol, and cleavage of caspase-9 and PARP	induces TUNEL positivity and active caspase-3 expression
